First the molecules themselves.
B1: mouse MCM8 protein (other)
chain: MSGAYRGRGFGRGRFQSWKRGRGGGNFSGRWRERENRVDLNEASGKHASAQASQPLLQQSTLDQFIPYKGWKLYFSEVYSNNSPFIEKIQAFEKFFTRHIDLYDKDEIERKGSILVDFKELTKADEITNLIPDIENALRDAPEKTLACMGLAIHQVLTKDLERHAAELQAQEGLSNGGETMVNVPHIYARVYNYEPLTHLKNIRATCYGKYISIRGTVVRVSNIKPLCTNMAFQCAACGEIQSFPLPDGKYTLPTKCPVPACRGRSFAPLRSSPLTVTLDWQLIKIQELMSDAQREAGRIPRTIECELVHDLVDSCVPGDTVTVTGIVKVSNSEEGSRNKNDKCMFLLYIEANSVSNSKGPKAQTAEDGCKHGTLMEFSLKDLYAIREIQAEENLLKLVVNSLCPVIFGHELVKAGLTLALFGGSQKYADDKNRIPIRGDPHVLIVGDPGLGKSQMLQAACNVAPRGVYVCGNTTTSSGLTVTLSKDSSSGDFALEAGALVLGDQGICGIDEFDKMGNQHQALLEAMEQQSISLAKAGVVCSLPARTSIVAAANPVGGHYNKARTVSENLKMGSALLSRFDLVFILLDTPNEQHDHLLSEHVIAIRAGKQKAVSSATVTRVLSQDSNTSVLEVVSEKPLSERLKVAPGEQTDPIPHQLLRKYIGYARQYVHPRLSTDAAQALQDFYLELRKQSQRVGSSPITTRQLESLIRLTEARARLELREEATREDAEDIIEIMKHSMLGTYSDEFGNLDFERSQHGSGMSNRSTAKRFISALNSIAERTYNNIFQYHQLRQIAKELNIQVADFENFIGSLNDQGYLLKKGPKIYQLQTM
notes: Endogenous protein in mouse testes extracts and MEF cell extracts

The target of one assay is T1, MCM2 (mouse, UniProt P97310 2-904).
T1 construct: Detected by western blot (sc-9839) in the immunoprecipitates from mouse testes extracts; also called member of the MCM2-7 complex
The assay is described as follows: co-immunoprecipitation from mouse testes extracts, western blot (FIG. 18A). The source says: (§1) FIG. 18A represents immunoprecipitations of MCM8 (IP anti-MCM8; lane C) and MCM9 (IP anti-MCM9; lane D) from testes extracts blotted against MCM9 (panel 1), MCM8 (panel 2), MCM2 (panel 3) and MCM5 (panel 4). To normalize the loading, IgGs of each IP are also shown (panel 5).

In the assay “mouse MCM8 protein” the target is B1. Described as above.
Description: as §1

The text below walks through data of US20140227280A1 (CENTRE NATIONAL DE LA RECHERCHE SCIENTIFIQUE, published 2014).

T1 sequence (P97310 2-904 limits assumed): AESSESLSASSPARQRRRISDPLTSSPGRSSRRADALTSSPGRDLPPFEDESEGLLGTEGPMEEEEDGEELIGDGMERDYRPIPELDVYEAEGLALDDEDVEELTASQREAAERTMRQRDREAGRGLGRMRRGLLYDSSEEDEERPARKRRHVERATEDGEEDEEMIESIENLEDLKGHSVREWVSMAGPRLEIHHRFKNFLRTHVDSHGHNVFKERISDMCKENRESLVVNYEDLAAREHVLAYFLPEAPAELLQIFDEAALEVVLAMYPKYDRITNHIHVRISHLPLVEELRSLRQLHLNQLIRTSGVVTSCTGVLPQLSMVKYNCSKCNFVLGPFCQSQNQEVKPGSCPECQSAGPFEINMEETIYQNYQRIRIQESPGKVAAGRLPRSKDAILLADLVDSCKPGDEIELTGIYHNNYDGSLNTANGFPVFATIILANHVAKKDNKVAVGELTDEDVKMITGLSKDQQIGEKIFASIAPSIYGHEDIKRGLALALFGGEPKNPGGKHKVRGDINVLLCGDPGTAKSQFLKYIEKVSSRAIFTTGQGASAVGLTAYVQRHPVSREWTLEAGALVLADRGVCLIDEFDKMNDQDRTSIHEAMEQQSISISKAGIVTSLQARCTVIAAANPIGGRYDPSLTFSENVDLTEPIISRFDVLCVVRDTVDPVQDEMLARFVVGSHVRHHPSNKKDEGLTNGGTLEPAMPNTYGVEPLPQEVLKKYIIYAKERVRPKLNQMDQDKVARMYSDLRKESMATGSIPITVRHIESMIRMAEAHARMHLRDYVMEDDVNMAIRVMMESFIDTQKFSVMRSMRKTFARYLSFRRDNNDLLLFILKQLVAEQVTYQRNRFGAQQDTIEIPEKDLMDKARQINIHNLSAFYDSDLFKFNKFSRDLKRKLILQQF

Consider B1, for which the binding result in the assay with MCM2 was “no binding”.

B2: MCM5 (other, mouse, UniProt P49718 2-734, looked up)
chain: SGFDDPGIFYSDSFGGDPGAEEGQARKSQLQRRFKEFLRQYRVGTDRTGFTFKYRDELKRHYNLGEYWIEVEMEDLASFDEELADHLHKQPAEHLQLLEEAAKEVADEVTRPRPAGDELLQDIQVMLKSDASPSSIRILKSDMMSHLVKIPGIIISASAVRAKATRISIQCRSCHNTLTNIAMRPGLEGYALPRKCNMDQAGRPKCPLDPYFIMPDKCKCVDFQTLKLQELPDAVPHGEMPRHMQLYCDRYLCDKVVPGNRVTIMGIYSIKKFGLNPSKGRDRVGVGIRSSYIRVLGIQVDTDGSGRSFAGSVSPQEEEEFRRLAALPNIYELISKSISPSIFGGMDMKKAIACLLFGGSRKRLPDGLTRRGDINLLMLGDPGTAKSQLLKFVEKCSPIGVYTSGKGSSAAGLTASVIRDPSSRNFIMEGGAMVLADGGVVCIDEFDKMREDDRVAIHEAMEQQTISIAKAGITTTLNSRCSVLAAANSVFGRWDETKGEDNIDFMPTILSRFDMIFIVKDEHNEERDMMLAKHVMTLHVSALTQTQAVEGEIDLAKMKKFIAYCRARCGPRLSAEAAEKLKNRYIIMRSGARQHERDSDRRSSIPITVRQLEAIVRIAEALSKMKLQPFATEADVEEALRLFQVSTLDAALSGNLSGVEGFTTQEDQEMLSRIEKQLKRRFAIGSQVSEHSIVQDFTKQKYPEHAIRKVLQLMLRRGEIQHRMQRKVLYRLK
notes: Detected by western blot (sc-22780) in the immunoprecipitates from mouse testes extracts; also called member of the MCM2-7 complex
For the molecule B2, the binding result with mouse MCM8 protein is “no binding”.
